Experimental data from article PMC9483561.

Target: integrin α5β1 headpiece (α5 F1–L609/β1 Q1–E481) (UniProt P05556)
Assay: fluorescence polarisation

Substance: fibronectin fragment Fn7–10 (P1142–T1509) (from UniProt P02751-1 1173-1540) (domain or fragment)
- Kd: 0.03 µM

Substance: fibronectin fragment Fn9–10 (G1326–T1509) (from UniProt P02751-1 1357-1540) (domain or fragment)
- Kd: 0.03 µM
